Source: paper PMC3058899 (Nature, 2010)

Columns and labels:
[1] = molecular target: T1, RebH (Lentzea aerocolonigenes, UniProt Q8KHZ8); assay: LC-MS of 7-chlorotryptophan in transformed C. roseus hairy roots; format: cell-based; conditions: with RebF reductase, chloride; in planta
T1 sequence (Q8KHZ8 1-530): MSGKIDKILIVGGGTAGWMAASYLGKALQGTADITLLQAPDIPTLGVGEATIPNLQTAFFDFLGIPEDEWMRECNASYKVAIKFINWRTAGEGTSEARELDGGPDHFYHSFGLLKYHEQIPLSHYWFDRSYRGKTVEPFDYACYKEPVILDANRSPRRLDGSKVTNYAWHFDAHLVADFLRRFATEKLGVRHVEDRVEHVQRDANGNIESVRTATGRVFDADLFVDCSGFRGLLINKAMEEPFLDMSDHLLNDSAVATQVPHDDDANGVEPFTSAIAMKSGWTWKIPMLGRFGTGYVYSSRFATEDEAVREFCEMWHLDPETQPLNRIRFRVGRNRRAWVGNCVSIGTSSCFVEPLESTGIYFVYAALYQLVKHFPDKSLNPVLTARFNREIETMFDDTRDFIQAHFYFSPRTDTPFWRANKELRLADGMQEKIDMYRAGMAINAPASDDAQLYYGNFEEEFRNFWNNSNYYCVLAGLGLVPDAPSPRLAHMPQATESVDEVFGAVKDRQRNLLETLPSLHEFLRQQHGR

[2] = molecular target: PyrH (Streptomyces rugosporus, UniProt A4D0H5); assay: LC-MS of 5-chlorotryptophan in transformed C. roseus hairy roots; format: cell-based; conditions: with RebF reductase, chloride; in planta
[3] = substrate: N[C@@H](Cc1c[nH]c2ccccc12)C(=O)O; assay: in vitro steady-state kinetics of decarboxylation; format: biochemical, Catharanthus roseus
[4] = substrate: N[C@@H](Cc1c[nH]c2c(Cl)cccc12)C(=O)O; assay: in vitro steady-state kinetics of decarboxylation; format: biochemical, Catharanthus roseus
[5] = substrate: N[C@@H](Cc1c[nH]c2ccc(Cl)cc12)C(=O)O; assay: in vitro steady-state kinetics of decarboxylation; format: biochemical, Catharanthus roseus

PyrH, sequence (A4D0H5 whole entry): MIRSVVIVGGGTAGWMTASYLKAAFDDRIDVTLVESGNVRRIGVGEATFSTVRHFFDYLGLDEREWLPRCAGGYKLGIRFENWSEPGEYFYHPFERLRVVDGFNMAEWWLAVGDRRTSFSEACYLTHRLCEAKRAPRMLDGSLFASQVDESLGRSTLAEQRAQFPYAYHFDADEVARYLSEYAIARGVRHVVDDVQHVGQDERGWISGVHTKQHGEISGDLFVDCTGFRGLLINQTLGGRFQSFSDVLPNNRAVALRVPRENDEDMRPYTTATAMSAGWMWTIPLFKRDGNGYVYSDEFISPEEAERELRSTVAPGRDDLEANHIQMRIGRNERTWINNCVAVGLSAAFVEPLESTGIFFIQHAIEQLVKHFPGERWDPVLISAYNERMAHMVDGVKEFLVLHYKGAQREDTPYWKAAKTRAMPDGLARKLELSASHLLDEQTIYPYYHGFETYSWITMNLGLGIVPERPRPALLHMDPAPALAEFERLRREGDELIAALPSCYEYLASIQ

## N[C@@H](Cc1c[nH]c2ccccc12)C(=O)O [compound 1, tryptophan]
[1]
  LC-MS of 7-chlorotryptophan in transformed C. roseus hairy roots: formation of chlorinated tryptophan 1a and 1b and chlorinated alkaloids in both the RebH/RebF
[2]
  LC-MS of 5-chlorotryptophan in transformed C. roseus hairy roots: we observed accumulation of 5-chlorotryptophan 1b

B1: tryptophan decarboxylase (C. roseus) (Catharanthus roseus) (protein)
chain: MGSIDSTNVAMSNSPVGEFKPLEAEEFRKQAHRMVDFIADYYKNVETYPVLSEVEPGYLRKRIPETAPYLPEPLDDIMKDIQKDIIPGMTNWMSPNFYAFFPATVSSAAFLGEMLSTALNSVGFTWVSSPAATELEMIVMDWLAQILKLPKSFMFSGTGGGVIQNTTSESILCTIIAARERALEKLGPDSIGKLVCYGSDQTHTMFPKTCKLAGIYPNNIRLIPTTVETDFGISPQVLRKMVEDDVAAGYVPLFLCATLGTTSTTATDPVDSLSEIANEFGIWIHVDAAYAGSACICPEFRHYLDGIERVDSLSLSPHKWLLAYLDCTCLWVKQPHLLLRALTTNPEYLKNKQSDLDKVVDFKNWQIATGRKFRSLKLWLILRSYGVVNLQSHIRSDVAMGKMFEEWVRSDSRFEIVVPRNFSLVCFRLKPDVSSLHVEEVNKKLLDMLNSTGRVYMTHTIVGGIYMLRLAVGSSLTEEHHVRRVWDLIQKLTDDLLKEA
[3]
  Km: 51.7 ± 9.2 µM
  kcat: 0.085 ± 0.0017 s⁻¹
[4]
  Km: 499 ± 74 µM
  kcat: 0.0267 ± 0.00067 s⁻¹
[5]
  Km: 538 ± 48 µM
  kcat: 0.0417 ± 0.0013 s⁻¹
